These results are taken from patent publication US8993320B2, “Culture method to obtain and maintain a pure or enriched population of mammalian neural stem cells and/or neural/progenitor cells that are prone to differentiate into oligodendrocyte-lineage cells in vitro” (priority 2011, dated 2015).

Assay [1] relates to HFSC cells. In words: Expansion of HFSC cells with growth factors and supplements (live cell count). It counts as cell-based, human. To be noted: 10 ng/ml NT-3 added at passage 17; cell line #2b; effect disappeared after a passage.
The test system of assay [2] is HFSC cells. The description is as above. To be noted: cell line #2b and cell line #3; same condition except for PDGF-AA. It counts as cell-based, human. The protocol:
FIG. 4 illustrates the expansion rate of HFSC cells (cell line #2b) in the presence of different combinations of growth factors: (1): 20 ng/ml PDGF-AA+10 ng/ml bFGF; (2): 20 ng/ml PDGF-AA+10 ng/ml bFGF+5 ng/ml NT-3; (3): 20 ng/ml PDGF-AA+10 ng/ml bFGF+10 ng/ml IGF-1; (4): 20 ng/ml PDGF-AA+10 ng/ml bFGF+5 ng/ml NT-3+10 ng/ml IGF-1. The cells were harvested at day 11 of passage 3 (P3D11) and number of live cells in each condition was counted. Then, they were passaged in the same condition that was used at passage 3 at the same cell density. The cells were harvested at day 8 of passage 4 (P4D8) and number of live cells in each condition was counted (these cells were harvested before they became sub-confluent because they started forming spheres). […] Condition (3) was effective at both passages. […] The cells were harvested at day 7 of passage 5 (these cells were harvested before they became sub-confluent because they started forming spheres as they did at passage 4) and number of live cells in each condition was counted. […]

B1: neurotrophin-3 (protein, UniProt P20783 139-257, looked up)
Neurotrophin-3: YAEHKSHRGEYSVCDSESLWVTDKSSAIDIRGHQVTVLGEIKTGNSPVKQYFYETRCKEARPVKNGCRGIDDKHWNSQCKTSQTYVRALTSENNKLVGWRWIRIDTSCVCALSRKIGRT
notes: growth factor
Take B1: in the assay with HFSC cells [1], the “effect on cell growth” value is reported as “enhanced the cell growth a little bit”.

B2: PDGF-BB: PDGF family member used to replace PDGF-AA (protein, UniProt P01127 82-190, looked up)
Platelet-derived growth …: SLGSLTIAEPAMIAECKTRTEVFEISRRLIDRTNANFLVWPPCVEVQRCSGCCNNRNVQCRPTQVQLRPVQVRKIEIVRKKPIFKKATVTLEDHLACKCETVAAARPVT
On to B2, for which, in the assay with HFSC cells [2], the “expansion of cells when replacing PDGF-AA” value is given as “could expand both cell lines”.
